Measurements from patent US20200256882A1, “FLUID PROPERTY MEASUREMENT DEVICES AND METHODS” (Abram Scientific, Inc., priority 2019, published 2020).

Tested on: whole blood samples (extrinsic coagulation pathway)
Test: Thromboelastogram (TEG) coagulation test on disposable test strip
Format: biochemical
Settings: blood samples with increasing concentrations, 0 to 1.8 nM; FIG. 19(b)
Protocol: The disposable test strips used in this example were incorporated with a reagent comprising of rabbit brain thromboplastin (Pacific Hemostasis Prothrombin Time reagent, Thromboplastin-DS, Product# 29-227-3), calcium chloride (25 mM) and Tween (2% v/v aqueous solution). Prior to the final assembly of the strip, the reagent was incorporated by dispensing the solution on to the exposed hydrophilic surface in the bottom stack, followed by air-drying in a drying box with humidity control at standard room temperature and pressure. The ratio of the volume of the reagent to blood tested in the chamber was maintained at close to 2:1 to ensure successful initiation of the blood coagulation reaction. […] Lastly, in some tests, blood samples were also tested using 2 Haemonetics' TEG-5000 instruments (2 tests per instrument) and their corresponding TEG curve & parameters were recorded, in order to perform side-by-side comparison with the results generated using the disposable test strips. Results: • In this example, the oscillation characteristics (amplitude and phase) of the in-plane vibration mode of a physical element in single-use disposable test strips were measured as a function of frequency in the vicinity of the resonance frequency, and these amplitude & phase frequency scans were monitored periodically to determine different aspects of the blood coagulation cascade. […]

B1: tPA: tissue plasminogen activator, enhances the external fibrinolysis process (protein, UniProt P00750 36-562, looked up)
Tissue-type plasminogen …: SYQVICRDEKTQMIYQQHQSWLRPVLRSNRVEYCWCNSGRAQCHSVPVKSCSEPRCFNGGTCQQALYFSDFVCQCPEGFAGKCCEIDTRATCYEDQGISYRGTWSTAESGAECTNWNSSALAQKPYSGRRPDAIRLGLGNHNYCRNPDRDSKPWCYVFKAGKYSSEFCSTPACSEGNSDCYFGNGSAYRGTHSLTESGASCLPWNSMILIGKVYTAQNPSAQALGLGKHNYCRNPDGDAKPWCHVLKNRRLTWEYCDVPSCSTCGLRQYSQPQFRIKGGLFADIASHPWQAAIFAKHRRSPGERFLCGGILISSCWILSAAHCFQERFPPHHLTVILGRTYRVVPGEEEQKFEVEKYIVHKEFDDDTYDNDIALLQLKSDSSRCAQESSVVRTVCLPPADLQLPDWTECELSGYGKHEALSPFYSERLKEAHVRLYPSSRCTSQHLLNRTVTDNMLCAGDTRSGGPQANLHDACQGDSGGPLVCLNDGRMTLVGIISWGLGCGQKDVPGVYTKVTNYLDWIRDNMRP
  fibrinolysis rate Lys-Rate: increasing trend
